The record followed here is PMC4183798.

For this assay, the target named is Fc-Nxph1mat-N146D/N156D/N162D (rat) (UniProt Q63366). Description: SPR; reversed experiment: purified Fc-Nxph1·LNS2-HA complex (formed by co-expression) bound covalently and randomly to a CMD 200m chip (EDC-NHS); running buffer 50 mM Tris pH 7.4; serial injections of elution solutions (pH 4, pH 8.9, 0.25–4 M NaCl, 5 mM EDTA, 6 M urea, 7 M guanidinium chloride); Reichert SR7000DC. Background: SPR reads the build-up and loss of mass on a sensor chip optically.
UniProt Q63366, sequence (Q63366 22-271 N146D/N156D/N162D): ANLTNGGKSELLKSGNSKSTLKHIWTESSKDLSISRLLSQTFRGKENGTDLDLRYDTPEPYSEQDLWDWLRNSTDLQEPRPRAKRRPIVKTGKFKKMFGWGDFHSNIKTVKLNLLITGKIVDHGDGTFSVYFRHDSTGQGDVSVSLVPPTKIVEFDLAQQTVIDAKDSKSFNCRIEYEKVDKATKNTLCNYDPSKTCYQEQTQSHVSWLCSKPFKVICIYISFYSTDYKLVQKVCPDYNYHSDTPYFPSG

On to “C-terminally hemagglutinin (HA)-tagged LNS2 (domain or fragment)”, for which the percent of the complex released after injection of 1 M NaCl is 9%.
